Article PMC8423902

Molecular target: trimeric SARS-CoV-2 ectodomain (S 6P trimer, residues 16-1206) (SARS-CoV-2) (UniProt P0DTC2)
Assay: cryo-EM structure

“trimeric SARS-CoV-2 ectodomain (S 6P trimer, residues 16-1206) (from UniProt P0DTC2 16-1206)” showed a stoichiometry N of 3.
